system: xylose isomerase activity; test: Heterologous xylose isomerase expression in engineered yeast (active yes/no); settings: xylose isomerase of the donor organism expressed in engineered yeast (S. cerevisiae)

Row | Molecule | Active? (yes/no)
1 | Actinoplanes missouriensis: xylose isomerase of this donor organism expressed in S. cerevisiae | No
2 | Bacteroides thetaiotaomicron: xylose isomerase of this donor organism expressed in S. cerevisiae | Yes
3 | Streptomyces diastaticus subsp diastaticus: xylose isomerase of this donor organism expressed in S. cerevisiae | No
4 | Streptomyces rubiginosus: xylose isomerase of this donor organism expressed in S. cerevisiae | No
5 | Thermus thermophilus: xylose isomerase (Type 1) of this donor organism expressed in S. cerevisiae | Yes
6 | Escherichia coli: xylose isomerase of this donor organism expressed in S. cerevisiae (protein, UniProt P00944 1-440, looked up) Xylose isomerase: MQAYFDQLDRVRYEGSKSSNPLAFRHYNPDELVLGKRMEEHLRFAACYWHTFCWNGADMFGVGAFNRPWQQPGEALALAKRKADVAFEFFHKLHVPFYCFHDVDVSPEGASLKEYINNFAQMVDVLAGKQEESGVKLLWGTANCFTNPRYGAGAATNPDPEVFSWAATQVVTAMEATHKLGGENYVLWGGREGYETLLNTDLRQEREQLGRFMQMVVEHKHKIGFQGTLLIEPKPQEPTKHQYDYDAATVYGFLKQFGLEKEIKLNIEANHATLAGHSFHHEIATAIALGLFGSVDANRGDAQLGWDTDQFPNSVEENALVMYEILKAGGFTTGGLNFDAKVRRQSTDKYDLFYGHIGAMDTMALALKIAARMIEDGELDKRIAQRYSGWNSELGQQILKGQMSLADLAKYAQEHHLSPVHQSGRQEQLENLVNHYLFDK | No
7 | Burkholderia xenovorans: xylose isomerase of this donor organism expressed in S. cerevisiae (protein, UniProt Q13RB8 1-440, looked up) Xylose isomerase: MSYFEHIPEIRYEGPQSDNPLAYRHYDKSKKVLGKTLEEHLRIAVCYWHTFVWPGVDIFGQGTFRRPWQQAGDAMERARQKADSAFEFFSKLGTPYYTFHDTDVSPEGSSLKEYSENFLRITDYLARKQEDTGIKLLWGTANLFSHPRYAAGAATSPDPEVFAFAATQVRHALDATQRLGGDNYVLWGGREGYDTLLNTDLMRERDQLARFLHMVVDHAHKIGFKGSLLIEPKPQEPTKHQYDYDVATVHGFLLQHGLEKEIRVNIEANHATLAGHSFHHEIATAYALGIFGSVDANRGDPQNGWDTDQFPNSVEELTLAFYEILKHGGFTTGGMNFDSKVRRQSVDPEDLFYGHIGAIDNLALAVERAAVLIENDRLDQFKRQRYAGWDADFGRKILSGDYSLSTLATDALARGLNPQHASGHQELMENIVNQAIYSGR | No
8 | Bacillus subtilis: xylose isomerase of this donor organism expressed in S. cerevisiae (protein, UniProt P0CI80 1-445, looked up, expressed in S. cerevisiae) Xylose isomerase: MAQSHSSSINYFGSANKVVYEGKDSTNPLAFKYYNPQEVIGGKTLKEHLRFSIAYWHTFTADGTDVFGAATMQRPWDHYKGMDLAKMRVEAAFEMFEKLDAPFFAFHDRDIAPEGSTLKETNQNLDMIMGMIKDYMRNSGVKLLWNTANMFTNPRFVHGAATSCNADVFAYAAAQVKKGLETAKELGAENYVFWGGREGYETLLNTDLKFELDNLARFMHMAVDYAKEIGYTGQFLIEPKPKEPTTHQYDTDAATTIAFLKQYGLDNHFKLNLEANHATLAGHTFEHELRMARVHGLLGSVDANQGHPLLGWDTDEFPTDLYSTTLAMYEILQNGGLGSGGLNFDAKVRRSSFEPDDLIYAHIAGMDAFARGLKVAHKLIEDRVFEDVIQHRYRSFTEGIGLEIIEGRANFHTLEQYALNHKSIKNESGRQEKLKAILNQYILEV | No
9 | Arabidopsis thaliana: xylose isomerase of this donor organism expressed in S. cerevisiae (protein, UniProt Q9FKK7 1-477, looked up) Xylose isomerase: MKKVEFFMLLLCFIAASSLVSADPPTCPADLGGKCSDSDDWQGDFFPEIPKIKYEGPSSKNPLAYRWYNAEEEILGKKMKDWFRFSVAFWHTFRGTGGDPFGAATKYWPWEDGTNSVSMAKRRMRANFEFLKKLGVDWWCFHDRDIAPDGTTLEESNKNLDEVIELAKELQKGSKIKPLWGTAQLFLHPRYMHGGATSSEVGVYAYAAAQVKKAMEVTHYLGGENYVFWGGREGYQTLLNTDMGRELDHLARFFEAAVAYKKKIGFKGTLLIEPKPQEPTKHQYDWDAATAANFLRKYGLIDEFKLNIECNHATLSGHTCHHELETARINGLLGNIDANTGDAQTGWDTDQFLTDVGEATMVMMSVIKNGGIAPGGFNFDAKLRRESTDVEDLFIAHISGMDTMARGLRNAVKILEEGSLSELVRKRYATWDSELGKQIEEGKADFEYLEKKAKEFGEPKVSSAKQELAEMIFQSAM | No
10 | Staphylococcus xylosus: xylose isomerase of this donor organism expressed in S. cerevisiae (protein, UniProt P27157 1-439, looked up) Xylose isomerase: MSYFDINKVNYEGPKSNNAFSFKYYNPEEKLGNHSMSELLRFSVAYWHTFTADLSDPFGVGVAERDWDSLDEMEKAKARVEAIFEFMEKTRIDYFCFHDVDISPEGASLKESNENLDIIVELIKEKMDQTGKKLLWNTTNNFTHERFVHGAATSSNAEVFAYAAAKVKKSLEIAKKLGSENFVFWGGREGYESLLNTNMKLELDNLATFFKMAKSYADEIGYTGQFLIEPKPKEPTTHQYDTDVATAHAFLQKYDLDKDFKFNIEANHATLAGHTFQHELRYARDNNMLGSVDANQGHPLLGWDTDESTDVYDTTLAMYEILKNGGLAPGGLNFDAKPRRTSFKQEDLILTHIAGMDTFALGLRVAYKMIEDNFFENIMDEKYKSFNEGIGKKIVEGETSLKELEDYAFNINTINNTSDHLEVIKSQINQYILNINNKD | No
11 | Bacillus licheniformis: xylose isomerase of this donor organism expressed in S. cerevisiae (protein, UniProt P77832 1-448, looked up) Xylose isomerase: MFFRNIGMIEYEGADSENPYAFKYYNPDEFVGGKTMKEHLRFAVAYWHTFDADGKDPFGDGTMFRAWNRLTHPLDKAKARAEAAFEFFEKLGVPYFCFHDVDIVDEGATLRETFTYLDQMSSFLKEMMETSHVQLLWNTANMFTHPRYVHGAATSCNADVYAYAAAKVKKGLDIAKELGAENYVFWGGREGYETLLNTDMKLELENLSSFYRMAVEYAREIGFDGQFLIEPKPKEPTKHQYDFDAATTIAFLETYGLKDHFKLNLEANHATLAGHTFEHELRVAALHDMLGSIDANQGDLLLGWDTDEFPTDLYSAVLAMYEILKAGGFKTGGINFDAKVRRPSFADEDLFHAHIAGMDTYAVGLKVASRLLEDKALDQVIEERYESYTKGIGLEIKEGRTDLKKLAAYALENDHIENQSGRQERLKATVNRYLLNALREAPAGKETH | No
12 | Clostridium thermosulfurogenes: xylose isomerase of this donor organism expressed in S. cerevisiae (protein, UniProt P19148 1-439, looked up) Xylose isomerase: MNKYFENVSKIKYEGPKSNNPYSFKFYNPEEVIDGKTMEEHLRFSIAYWHTFTADGTDQFGKATMQRPWNHYTDPMDIAKARVEAAFEFFDKINAPYFCFHDRDIAPEGDTLRETNKNLDTIVAMIKDYLKTSKTKVLWGTANLFSNPRFVHGASTSCNADVFAYSAAQVKKALEITKELGGENYVFWGGREGYETLLNTDMEFELDNFARFLHMAVDYAKEIGFEGQFLIEPKPKEPTKHQYDFDVANVLAFLRKYDLDKYFKVNIEANHATLAFHDFQHELRYARINGVLGSIDANTGDMLLGWDTDQFPTDIRMTTLAMYEVIKMGGFDKGGLNFDAKVRRASFEPEDLFLGHIAGMDAFAKGFKVAYKLVKDRVFDKFIEERYASYKDGIGADIVSGKADFRSLEKYALERSQIVNKSGRQELLESILNQYLFAE | No
13 | Pseudomonas syringae: xylose isomerase of this donor organism expressed in S. cerevisiae (protein) MHPRVLEVTERLIARSRDTRQRYLQLIRGAASDGPMRGKLQCANFAHGVAACGPEDKQSLRLMNAANVAIVSSYNEMLSAHQPYEHFPAQIKQALRDIGSVGQFAGGVPAMCDGVTQGEPGMELAIASREVIAMSTAIALSHNMFDAAMMLGICDKIVPGLMMGALRFGHLPTIFVPGGPMVSGISNKEKADVRQRYAEGKASREELLDSEMKSYHGPGTCTFYGTANTNQLVMEVMGMHLPGASFVNPYTPLRDALTAEAARQVTRLTMQSGSFMPIGEIVDERSLVNSIVALHATGGSTNHTLHMPAIAQAAGIQLTWQDMADLSEVVP | No
14 | Psudomonas savastanoi: xylose isomerase of this donor organism expressed in S. cerevisiae (protein, UniProt Q48J73 1-438, looked up, expressed in S. cerevisiae) Xylose isomerase: MPYFPAVDKVRYEGPDSDSPLAFRHYDADKLILGKPMREHLRMAACYWHTFVWPGADMFGVGTFKRPWQGSGDPLELAIGKAETAFEFFSKLGIDYYSFHDTDVAPEGSSLKEYRNNFAQMIDQLERHQEQTGIKLLWGTANCFSNPRFAAGAASNPDPEVFAYAATQVFSAMNATQRLKGANYVLWGGREGYETLLNTDLRQEREQLGRFMRMVVEHKHKIGFKGDLLIEPKPQEPTKHQYDYDSATVFGFLQQYGLEKEIKVNIEANHATLAGHSFHHEIATAVSLGIFGSIDANRGDPQNGWDTDQFPNSVEEMTLATYEILKAGGFTNGGYNFDSKVRRQSLDEVDLFHGHVAAMDVLALALERAAAMVQNDKLQQFKDQRYAGWQQPFGKSLLAGEFSLESLAKHAFDKDLNPQAVSGRQELLEGVVNRFIYF | No

— patent publication US20110165660A1, “ENGINEERED MICROORGANISMS WITH ENHANCED FERMENTATION ACTIVITY” (VERDEZYNE, INC., priority 2009, published 2011)
